± gives the standard error. This sample holds only a part of the variants without activity.
B1: glmS ribozyme (parent)
chain: AUAAAAGCGCCAGAACUACAGAAAUGUAGUUGACGAGGAGGAGGUUUAUCGAAUUUUCGGCGGAUGCCUCCAAA

Variants of: B1
Assay: self-cleavage kobs at 2500 uM GlcN6P; higher = faster cleavage; RNA array
Details: with glucosamine-6-phosphate
Summary of the method: (§1)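 The measurements used barcoded ribozyme variants on sequenced MiSeq chips, transcribed in situ by E. coli RNA polymerase and tracked at 37 °C with a hybridised Cy3 probe. Glucosamine-6-phosphate, 40 μM to 10 mM in HEPES/KCl/Mg(OAc)2 buffer, was flowed in while tiles were imaged over ~14 h. Baseline-normalised signals, also normalised to non-cleaving reference variants, gave per-tile medians that were fit to one- or two-exponential decays for kobs. kcat and KM resulted from weighted Michaelis–Menten fits across concentrations.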

Variant	self-cleavage kobs at 2500 uM GlcN6P [s⁻¹]
AUAAAAGCGCCAGAUCUACAGAAAUGUAGUUGACGAGGAGGAGGUUUAUCGAAUUUUGGGCGGAUGCCUCCAAA	2.95e-05 ± 1e-05
AUAAAAGCGUCAGAACUACAGAAAUGUAGAUGACGAGGAGGAGGUGUAUCGAAUUUUCGGCGGAUGCCUCCAAA	< 1e-05
AUAAAAGCGCCAGAACUACAGAAAUGUAGUUGACGAGGAUGAGGUUUAUCUAAUUUUCAGCGGAUGCCUCCAAA	< 1e-05
AGAAAAGCGCCAGAACUACAGAAAUGUAGUUGACGAGGAGGAGGUGUAUCGAUUUUUCGGCGGAUGCCUCCAAA	0.00369 ± 0.0011
AUAAAACCGGCAGAACUACAGAAAUGUAGUUGACGAGGAGGAGGUUUAUCUAAUUUUCGGCGGAUGCCUCCAAA	< 1e-05
AUAAAAGAGCCAGAACUACAGAAAUGUAGUUGACGAGGGGGAGGUUUUUCGAAUUUUCGGCGGAUGCCUCCAAA	< 1e-05
AUAAAAGCGGCAGAACUACAGAAAUGUAGUUGACGAGGAGGAGUUUUAUGGAAUUUUCGGCGGAUGCCUCCAAA	< 1e-05
AUAAAAGCGCCAGAACUACAGAAAUGUAGUUAACGAGGAGGAGGUUUAUCGAAUUUUCGCCGGAUGCCUACAAA	< 1e-05
AUAAAAGCGCCAGAACUACAGAAAUGUAGUUGACGAGGUGGAGGUGUAUCGAAUUGUCGGCGGAUGCCUCCAAA	0.000873 ± 0.00027
AUAAAAGCGCAAGAACUACAGAAAUGUAGGUGACGAGGAGGAGGUUUAUCGAUUUUUCGGCGGAUGCCUCCAAA	0.00017 ± 4.1e-05
AUAAAAGCGCCAGAACUACAGAAAUGUAUUUGACGAGCAGGAGGUUUAUCGAAUUUUCAGCGGAUGCCUCCAAA	< 1e-05
AUAAAAGCGACAGAACUACAGAAAUGUAGUUGUCGAGGAGGAGGUUUUUCGAAUUUUCGGCGGAUGCCUCCAAA	< 1e-05
AUAAAAGCGCCAGAACUACAGAAAUGUAGAUGACGAGGAGGAGGUUUAUCGAAUUUUCGGCGAAUGCCCCCAAA	< 1e-05
AUAAAAGCGCAAGAACUACAGAAAUGUAGUUGAAGAGGAGGAGGUUUAUCGAAUUUUCGUCGGAUGCCUCCAAA	< 1e-05
AUAAAAGCGACAGAACUACAGAAAUGUAGUUGACGAGGAGGAGCUUUCUCGAAUUUUCGGCGGAUGCCUCCAAA	< 1e-05
AUAAAAGCGUCAGAAAUACAGAAAUGUAGUUGACGAGGAGGAGGCUUAUCGAAUUUUCGGCGGAUGCCUCCAAA	< 1e-05
AUAAAAGCGCCAGAACUACAGAAAUGUAUUUGACGAGGAGGAGGUUAAUCGAAUUUUCGGCGGAUGCCGCCAAA	7.38e-05 ± 1.7e-05
AUAAAAGCGCCUGAUCUACAGAAAUGUAGUUGACGAGGAGGAGGUUUAUGGAAUUUUCGGCGGAUGCCUGCAAA	0.000215 ± 5.7e-05
AUAAAAGCGCCCGAACUACAGAAAUGUAGUUGACGAGGAGGAGGUUUAUCGAAUUUUCGGCGGAUUCCUACAAA	0.000107 ± 2.6e-05
AUAAAAGCGCCAGCAAUACAGAAAUGUAGUUGACGAGGAGGAGGUUUAUCGAAUUUUCGGCGUAUGCCUCCAAA	< 1e-05
AUAAAAGCGCCAUAACUACAGAAAUGUAGUUGACGAGGAGGAUGUUUAUCGAAUUUUCGGCGUAUGCCUCCAAA	< 1e-05
AUAAAAGCGCCAGAACUACAGAAAUGUACUUGACGAGGAGGAGGUUUAUCGAAUUUUCGGCGGAUGAGUCCAAA	7.78e-05 ± 2.8e-05
AUAAAAGCGCCAGAAAUACAGAAAUGUAGUGUACGAGGAGGAGGUUUAUCGAAUUUUCGGCGGAUGCCUCCAAA	9.46e-05 ± 1.9e-05

Variant	self-cleavage kobs at 2500 uM GlcN6P [s⁻¹]
AUAAAAGCGCCAGAACUACAGAAAUGUAGUUGACGAGGAGGAGGUCUAUUGAAUUUUCGGUGGAUGCCUCCAAA	< 1e-05
AUAAAAGCGCCAGAACUACAGAAAUGUAGUUGACGUGGAGGAGGUUUAUCGAAUUUUCGGCGGAAGCUUCCAAA	< 1e-05
AUAAAAGCGCCAGAACUACAGAAAUGUAGUUGACGAGGAGGAGGUGUAUCGAAUUUUCGGCGGAAGGCUCCAAA	0.000131 ± 2.5e-05
AUAAAAGCGCCAGAACUACAGAAAUGUAGUUGAGGAGAAGGAGGUUUAUCGAAUUUUCGGCGGAUGCCUGCAAA	5.16e-05 ± 2.4e-05
AUAAAGACGCCAGAAGUACAGAAAUGUAGUUGACGAGGAGGAGGUUUACCGAUUUUUCGGCGGAUGUCUCCAAA	< 1e-05
AUAAAAGCGCCUGAACUACAGAAAUGUAGUUGACGAGGAGGAGGUUUAUUGAAUUUUCGGCGGACGCCUCCAAA	< 1e-05
AUAAAAGCUCCAGAACUACAGAAAUGUAGUGGACGAGGAGGAGGUUUAUCGAAUUUUCGGCGGAUUCCUCUAAA	< 1e-05
AUAAAAGCCCUAGAACUACAGAAAUGUACUUGACGAGGAGGAGGUUUAUCGAAUUUUCCGCGGAUGCCUCCAAA	< 1e-05
AUAAAAGCGCCAGAUCUACAGAAAUGUAGCUGACGAGGAGGAGGUUUAUCGAAUUUUCGGGGGAUGCCUCCAAA	< 1e-05
AUAAAAGCGCCAGAACUACAGAAAUGUAGUUGACGAGGAGGUUGUUUAUGGAAUUUUCGGCGGAUGCCUCCAAA	7.64e-05 ± 3.6e-05
AUAAAAGCGCCAGAAGUACAGAAAUGUAGUUGACGAGGAGGAAGUUUAUCGAAUUUACGGCGGAUUCCACCAAA	< 1e-05
AUAAAUGUGCCAGAACUACAGAAAUGUAGUUGACGAGGAGGAGGUUUAUCGAAUUUUGGGCGGAUGCCUCCAAA	< 1e-05
AUAAAAGCGCCAGAACUACAGAAAUGUAGUUGACGAGGCGGAGGUUUAUCGAAUUUUCGGCGGAUGGCUACAAA	< 1e-05
AUAAAAGCGCCAGAACUACAGAAAUGUAGUUUACGAAGAGGAGGUUUAUCGAAUUUUCGGCGCAUGCCUCCAAA	< 1e-05
AUAAAGGCGCCAGAACUACAGAAAUGUAGUUGACGAGGAGGAGGUUUAUCGACUUUUCGGCGGAUGCAUCCAAA	< 1e-05
AUAAAAGCGCCAGAACUACAGAAAUGUAGUGGACGAGGUGGAGGUUUAUCGAAUGUUCGGCGGAUGCCUCUAAA	0.0043 ± 0.00067
AUAAAAGCGCCGGAACUACAGAAAUGUAGGUGACGAGGAGGAGGUGUAUCGAAUUUUCGGCGGAUGCCUCCAAA	< 1e-05
AUAAAAGCGCCAGAACUACAGAAAUGUAGUUGACGAGGAGGAUUUUUAUCGAAUUUUCGACGGGUGACUCGAAA	< 1e-05
AUAAACGUGCCAGAACUACAGAAAUGUAGUUGACGAGGAGGAGGGUUAUCGAAUUUUCGGCGGACGACUCCAAA	< 1e-05
AUAAAAGCGGCAGAACUACAGAAAUGUAGUUGACGAAGAGGAGGUUUAUCGAAUUGUCGGCUGAUGCCUCCAAA	< 1e-05
AUAAAAGCGCCAGGACUACAGAAAUGUAAUUGACGUGGAGGAGGUUUAUCGAAUUUUCGGCGGAUGCCUCCAAA	< 1e-05
AUAAAAGCGCAAGAACUACAGAAAUGUAGUUGACGAGGACGAGGUUUAUCGAAUUUUCGGCAGAUGCUUCCAAA	< 1e-05
AUAAAAGAGCCAGAACUACAGAAAUGUAGUUGAAGAGGAGGAGGUUUAUCGAAUUUUCGGCGGAUGCCCCCAAA	< 1e-05

Variant	self-cleavage kobs at 2500 uM GlcN6P [s⁻¹]
AUAAAAGGGCCAGAACUACAGAAAUGUAGUUGACGAGGAGGAGGUUUAUCGAAUUUUCGGCGUACGCCUCCAAA	< 1e-05
AUAAAAGCGCCAGAACUACAGAAAUGUAGUUGACGAGGAGGAGGUAUUUCGAAUUUUCGGCGGAUGCCUCCAAA	6.88e-05 ± 2.5e-05
AUAAAAGCGCCAGAACUACAGAAAUGUAGUUGACGAGGAGGAGGAUUAUCUAAGUUUCGGCGCAUGCCUCCAAA	< 1e-05
AUAAAAGUGCCCGAACUACAGAAAUGUAGAUGACGAGGAGGAGGUUUAUCGAAUUUUCGGCGGAUGCCUCCAAA	< 1e-05
AUAAAAGCUCCAGAACUACAGAAAUGUAAUUGUCGAGGAGGAGGUUUAUCGAAUUUUCGGCGGAUGCCUCCAAA	< 1e-05
AUAAACGCGCCAGAACUACAGAAAUGUAGCUGACGAGGUGGAGGUUAAUUGACUUUUCGGCGGAUGCCUCCAAA	< 1e-05
AUAAAAGCGCCAGAACUACAGAAAUGUAGUUGACGAGGAGGAGGCUUCUCGAAUUUUCGGCGGAGGCCUGCAAA	< 1e-05
AUAAAAUCGCCUGAACUACAGAAAUGUAGUUGACGAGGAGGAGUUUUAUCGAAUUUUCGGCGGAUGCCUCCAAA	< 1e-05
AUAAAUGCGCCAGAACUACAGAAAUGUAGUUGACGAGGAGGAGUUAUAUCGUAUUGUUGGCGGAUGCCUUCAAA	< 1e-05
AUAAAACCGCCAGAACUACAGAAAUGUAGUUGACGAGCAGGAGGUUUAUCUAAUUUUCGGCGGAUGCCUCCAAA	< 1e-05
AUAAAAGCGCCAGAACUACAGAAAUGUAGUUGACGAGGAGGAGGUUUAUCGAAUUUUCGGCGGGUGCGUCGAAA	0.000122 ± 3.9e-05
AUAAAAGCGCCAGAACUACAGAAAUGUAGUUAACGAGGAGGAGGCUUAUCGAAUUUUCGGCGGAUGCCUCCAAA	0.000112 ± 3.8e-05
AUAAAAGCGCCAGAUCUACAGAAAUGUAGUUGACGAGUAGGAGGUUUAUCGAAUUUUCGGCGGAUGCCGCCAAA	0.000183 ± 4.2e-05
AUAAAAGCGCCAGAACUACAGAAAUGUAGUUUACGAGGAGGAGGCUUAUCGAAUUUUCGGCGGAUGCCUCCAAA	1.98e-05 ± 7.1e-06
AUAAAAGCGCCAGAACUACAGAAAUGUAGUUGGCGAGGAGGAGGUUCAUCGAACUUUCGGCAGAUGCCUCCAAA	< 1e-05
AUAAAAGCGCCAGAAGUACAGAAAUGUAGUUGACGAGGAGGAGGUUUAUAGAAUUUUCGGCGGAUGCCUACAAA	8.7e-05 ± 2.4e-05
AUAAAAGCGCUACAACUACAGAAAUGUAGUUGACGAGGAGGAGGUUUAUCGAAUUUUCGGCAGAUGCCUCUAAA	< 1e-05
AUAAAUGCGCCAGAACUACAGAAAUGUAGUUGACGAGGAGGAGGUUUAUCGAUUUUUCGGCGUAUGCCUCCAAA	< 1e-05
AUAAAAGCGCCAGUAAUACAGAAAUGUAGUUGACGAGGAGGAGGUUUAUCGAAUUUUCGGCGAAUGCCUCCAAA	< 1e-05
AUAAAACCGCCAGAACUACAGAAAUGUAGUUGACGAGGAGGAGGUUUAUUGAAUUUUCGGCGGAUGACUCCAAA	< 1e-05
AUAAAAGCGCCAGAACUACAGAAAUGUAGUUGACGAGGAUGAGGUUUAUCGAAUUUUCGGCGGGUGCCUCAAAA	0.00288 ± 0.0008
AUAAAAGCGCCAGAAUUACAGAAAUGUAGUUAACGAGGAGAAGGUUUAUCGAAUUUUCGGCGGAUGCCUCCAAA	0.000133 ± 2.7e-05

Variants of: B1
Assay: self-cleavage kobs at 10000 uM GlcN6P; higher = faster cleavage; RNA array
Details: with glucosamine-6-phosphate
Summary of the method: as §1

Variant	self-cleavage kobs at 10000 uM GlcN6P [s⁻¹]
AUAAAAGCGCCAGAUCUACAGAAAUGUAGUUGACGAGGAGGAGGUUUAUCGAAUUUUGGGCGGAUGCCUCCAAA	4.63e-05 ± 1.2e-05
AUAAAAGAGCCAGAACUACAGAAAUGUAGUUGAAGAGGAGGAGGUUUAUCGAAUUUUCGGCGGAUGCCCCCAAA	< 1e-05
AUAAAAGGGCCAGAACUACAGAAAUGUAGUUGACGAGGAGGAGGUUUAUCGAAUUUUCGGCGUACGCCUCCAAA	< 1e-05
AUAAAAGCGCCAGAACUACAGAAAUGUAGUUAACGAGGAGGAGGCUUAUCGAAUUUUCGGCGGAUGCCUCCAAA	9.73e-05 ± 2.3e-05
AUAAAAGCGCCAGAACUACAGAAAUGUAGUUUACGAGGAGGAGGCUUAUCGAAUUUUCGGCGGAUGCCUCCAAA	4.42e-05 ± 5.9e-06
AUAAAAGCGCCAGAAUUACAGAAAUGUAGUUAACGAGGAGAAGGUUUAUCGAAUUUUCGGCGGAUGCCUCCAAA	0.00033 ± 9.1e-05

From the supplement of paper PMC7125110
